Patent publication US20240254227A1 (Alector, published 2024)
Where a chain is given by its changes, count along the chain named.

T1: murine CD300LB on wild type mouse bone marrow macrophages (mouse, UniProt Q3U497 18-209)
T1 construct: Endogenous receptor on primary cells; also called mCD300LB; Wt BMM
T1 sequence: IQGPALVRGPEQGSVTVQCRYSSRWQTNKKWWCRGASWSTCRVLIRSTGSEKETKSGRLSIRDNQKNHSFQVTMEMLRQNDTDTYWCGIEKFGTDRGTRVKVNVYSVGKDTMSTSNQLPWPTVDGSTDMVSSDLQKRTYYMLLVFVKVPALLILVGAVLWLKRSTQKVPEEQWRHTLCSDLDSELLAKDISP

T2: recombinant murine CD300LB overexpressed on BaF/3 cells (mouse, UniProt Q3U497 18-209)
T2 construct: Cells carry pMXs-Myc-tagged muCD300LB together with FLAG-tagged DAP12; also called muCD300LB; BaF/3 overexpressing muCD300LB
T2 sequence: T1 sequence

T3: recombinant human CD300LB overexpressed on Jurkat cells (human, UniProt A8K4G0 18-201)
T3 construct: also called huCD300LB; huCD300LB-expressing Jurkat cells
T3 sequence: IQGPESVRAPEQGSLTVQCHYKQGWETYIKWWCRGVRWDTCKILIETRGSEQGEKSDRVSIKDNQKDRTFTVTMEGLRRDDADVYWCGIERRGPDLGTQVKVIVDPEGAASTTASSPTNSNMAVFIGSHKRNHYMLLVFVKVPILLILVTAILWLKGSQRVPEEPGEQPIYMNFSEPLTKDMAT

B1: anti-CD300LB antibody CD-12 (antibody, V domains shown)
VH: QIQLVQSGPELKKPGETVKISCKASGYTFTDYSMHWVRQAPGKGLKWMAWINTETGEATHADDFKGRFDFSLDTSASTAYLQIKNLKNEDTGIYFCVCYGSSYGMDYWGQGTSVTVSS
VL: DIVLTQSPASLPVSLGQRATISCRASKSVRTSGASYMHWYQQKPGQPPKLLIYLASNLKSGVPTRFSGSGSGTDFTLNIHPVEEEDAATYYCQHNREVPPTFGGGTKLEIK
B2: anti-CD300LB antibody CD-16 (antibody, V domains shown)
VH: QIQLVQSGPELKKPGETVKISCKASGYTFTDYSMHWVKQAPGKGLKWMAWINTETGEPTYADDFRGRFAFSLETSGRTAYLEINNLRNEDTATYFCVTYGSSYGMAYWGQGTSVTVSS
VL: B1 VL with P12A, R30S, T31R, A34Y, M37L, N57K, K59E, T64A, E84A, V98I
B3: anti-CD300LB antibody CD-13 (antibody, V domains shown)
VH: QIQLVQSGPELKKPGETVKISCKASGYTFTDYSMHWVKQAPGKGFKWMAWINTETGAPTHADDFRGRFAFSLETSASTAFLQISNLKTEDTATYFCVTFGKSYGMNYWGQGTSVTVSS
VL: B1 VL with P12S, R30G, T31S, A34S, M37L, K59E, T64A, D74E, R96A
B4: anti-CD300LB antibody CD-15 (antibody, V domains shown)
VH: QIQLVQSGPELKKPGETVKISCQVSGYTFTDYSMHWLKQAPGKGLKWMAWINTETGESTYTDEFKGRFVFSLETSVRTAYLKINNLKNEDTATYFCGTYGSSYGMAYWGQGTSVTVSS
VL: B1 VL with R30S, A34S, M37L, N57K, K59E, T64A, S67R
B5: anti-CD300LB antibody CD-17 (antibody, V domains shown)
VH: QIQLVQSGPELKKPGETVKISCKASGYTLTDYSMHWVKQAPGKGLKWMGWINTETGEPRYGDDFKGRFAFSLETSASSAYLQINNLKNDDTATYFCATYGRSYGMDFWGQGTSVTVSS
VL: B1 VL with P12A, R30S, T31P, A34H, T64A, E85G, V98L, T106S
B6: anti-CD300LB antibody CD-05 (antibody, V domains shown)
VH: QVQLVQSGAEVKKPGASVKVSCKASGYTFSRYYINWVRQAPGQGLEWMGWINPNSGGTNYAQKFQGRVTMTRDTSTSTVYMELSSLRSEDTAVYYCTTDQLRFGKTGPYYGMDVWGQGTTVTVSS
VL: DIQMTQSPSSLSASVGDRVTITCRASQNIGTYLNWYQQKPGKAPKLLIYAASSLQSGVPSRFSGSGSGTDFTLTISSLQPEDFATYYCQQSYSDTLTFGGGTKVEIK
B7: anti-CD300LB antibody CD-06 (antibody, V domains shown)
VH: QVQLVQSGAEVKKPGASVKVSCKASGYTFTTYAVHWVRQAPGQGLEWMGIVNPNSGGTNYAQKFQGRVTMTRDTSTSTVYMELSSLRSEDTAVYYCARDIVPMNNFYNYYYGMDVWGQGTTVTVSS
VL: B6 VL with N28S, G30S, T31S, A51T, S53T, S93R, D94I, T95P, L96Y, G100Q
B8: anti-CD300LB antibody CD-11 (antibody, V domains shown)
VH: QIQLVQSGPEVKKPGETVKISCKASGYTLTDYSMHWVMQTPGTGLKWMAWMNTETGEPTYADDFKGRFAFSLETSAGTAYLQIDNLKNEDTATYFCATYGKSYGMKYWGQGTSVTVSS
VL: DIVLTQSPPSLAVSLGQRATISCRATKSVSPYLHWYQQTPGQPPKLLIYLASNLDSGVPARFSGSGSGTDFTLNIHPVEEEDAATYYCQHNKELPPTFGGGTRLEIK
B9: anti-CD300LB antibody CD-01 (antibody, V domains shown)
VH: RVQLQQSGAELVRPGASVTLSCKASGFTFTDFEMHWVKKTPVHGLEWIGAIDPESGNTAYNQKFRGKATLTADKSSSTAYMELRYLTSEDSAVYYCTPLISGADYWGQGTTLTVSS
VL: DVVMTQSPLSLPVSLGDQASISCRSSQSLVHSDGNTYLYWYLQKPGQSPKLLIYKVSNRFSGVPDRFSGSGSGTDFTFKISRVGAEDLGVYFCSQSTHVPWTFGGGTKLEII
B10: anti-CD300LB antibody CD-10 (antibody, V domains shown)
VH: QVQLQQSGPELVRPGVSVKISCKGSGYTFTDYAMHWVKQSHVRSREWIGVIGTYNGHTNYNQKFKGKATMTVDKSSSTAYLELARLTSEDSAIYYCARSGSYYYSMDYWGQGTSVTVSS
VL: QIVLTQSPAIMSASPGEKVTMTCSASSSVNYMHWYQQKSGTSPKRWIYDTSKLSSGVPARFSGSGSGTSYSLTISTMEAEDAATYYCQQWSSNPPMTFGGGTKLEIK
B11: anti-CD300LB antibody CD-18 (antibody, V domains shown)
VH: DVQLQESGPDLVKPSQSLSLTCTVTGYSITSGYSWHWIRQFPDNKLEWMGYILSRGDTNFNPSLKSRISITRSTSNNQFFLHFNSVTTEDTATYYCARDFFDYWGQGTTLTVSS
VL: DVLMTQTPLSLPVSLGDQASISCRSSQSIVHSNGNTYLEWYLQKPGQSPKLLIYKVSDRFSGVPDRFSGSGSGTDFTLKISRVEAEDLGVYFCFQGSHVPYTFGGGTKLEIK
B12: anti-CD300LB antibody CD-02 (antibody, V domains shown)
VH: QVQLQQPGAELVRPGSSVKLSCQASGYTFTNYWMHWVRQRPIQGLEWIGNIDPSDSETHYNQKFKDRATLTVDKSSSTAYMQLSSLTSEDSAVYYCARSGVYDDEGGDYWGQGTTLTVSS
VL: ENVLTQSPAIMSASPGEKVTMTCSASSSVSYIHWYQQKSSTSPKLWIYDTSKLASGVPGRFSGSGSGNSYSLTISSMETEDVATYYCFQGSGYPLTFGAGTKLELK
B13: anti-CD300LB antibody CD-14 (antibody, V domains shown)
VH: QIQLVQSGPELKKPGETVKISCKASGYTFTDYSLHWVKQTPEKNLKWMAWINTETGAPTYADDFKGRFAFSLETSSNTAYLLINNLKNEDTATYFCALTMVNYWGQGTTLTVSS
VL: DIVMTQSQKFMSTSVGDRVSVTCKASQNVGIRVAWHQQKPGQSPKTLIYSTSYRYSGVPDRFTGSGSGTEFILTISNVQSEDLAEYFCQQYNSYPYTFGGGTKLEIK

Key:
[1] = target: T1, murine CD300LB on wild type mouse bone …; assay: flow cytometry, wild type mouse bone marrow macrophages, 10 ug/mL, isotype subtracted
Protocol: To further examine the specificity of the anti-CD300LB antibodies to muCD300LB, bone marrow macrophages (BMM) from wild type (WT) and CD300LB knockout mice (KO) were analyzed for antibody binding by flow cytometry. Bone marrow from these mice was harvested and plated into three 20 cm PETRI dishes in complete media containing 50 ng/mL murine M-CSF (Peprotech). Media was changed every three days until day 6, when cells were harvested. Cells were detached with PBS 3 mM EDTA, washed and counted and plated at 100,000 cells/well in a 96 well plate. Cells were incubated with murine Fc block (Clone 2.4G2, BD) then with 10 μg/mL anti-CD300LB antibodies for 30 minutes on ice. […] Cells were washed twice more with 150 μL FACS buffer then resuspended to 100 μL in FACS buffer analyzed using a BD Canto II flow cytometer to calculate the geometric MFI minus the gMFI of the isotype control. Dead cells were stained with live/dead staining kit (Invitrogen).

[2] = target: T2, recombinant murine CD300LB …; assay: flow cytometry, BaF/3 cells overexpressing muCD300LB
Protocol: Purified anti-CD300LB antibodies of the present disclosure were evaluated for their binding affinity to either Jurkat cells overexpressing recombinant huCD300LB or BaF/3 cells overexpressing recombinant muCD300LB. Binding of anti-CD300LB antibodies to the cells was determined as follows. Cells were harvested, washed, and labeled with propidium iodide for viability discrimination. After washing the cells with PBS, 1×10⁵ cells were aliquoted per well in 96-well U-bottom plates and incubated with 100 μL of purified anti-CD300LB antibody at various concentrations in FACS buffer (PBS+2% FBS). After this primary incubation, the supernatant was removed via centrifugation, the cells washed twice with 150 μL of ice-cold FACS buffer, and then incubated with the appropriate secondary antibody on ice for 30 minutes. Following the secondary antibody incubation, the cells were again washed twice with ice-cold FACS buffer and resuspended in a final volume of 200 L FACS buffer. Flow cytometry analysis was then performed using the FACSCanto system (BD Biosciences).

[3] = target: T3, recombinant human CD300LB overexpressed …; assay: flow cytometry, stable Jurkat cells, supernatant or 10 ug/mL, isotype subtracted
How it was run: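 Binding was read as live-gated APC gMFI minus the matching isotype control, after an APC anti-human or anti-mouse secondary. Antibodies, either as hybridoma supernatants or purified at 10 μg/mL, were incubated 1 hour with a pooled mix of mouse-CD300LB, human-CD300LB and parental Jurkat cells, distinguished by CFSE/VioBlue labeling.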

Row | Binder | gMFI [1] [gMFI] | gMFI [2] [gMFI] | gMFI [3] [gMFI]
1 | B1 | 413 | 9800 | –
2 | B2 | 233 | 8970 | –
3 | B3 | – | 22100 | 324
4 | B4 | 256 | 8330 | –
5 | B5 | 1230 | – | 13
6 | B6 | – | – | 1810
7 | B7 | – | – | 3180
8 | B8 | 349 | 10900 | 50
9 | B9 | – | – | 309
10 | B10 | 192 | 6260 | 18
11 | B11 | 1290 | – | 114
12 | B12 | – | – | 1130
13 | B13 | – | 19400 | 59
